# Data: patent US20190194326A1 (UBI US, published 2019)
# B1: murine monoclonal antibody B4 (mAb B4) (antibody, V domains shown)
# VH: QVQLQQSGPELVKPGASVRMSCKASGYTFTDYVIHWVKQRTGQGLEWIGEIYPGSGSAYSNAKFKDKATLTADKSSNTAYMQLSSLTSEDSAVYFCARRGNGTGFAYWGQGTLVTVSA
# VL: DIVLTQSPASLAVSLGQRATISCKAGQSVDYDGDSYMNWYQQKPGQPPKLLIYVASNLESGIPARFSGSGSGTDFTLNIHPVEEEDAATYYCQQSYKDPLTFGAGTKLELK
# Target: human CD4, membrane-bound on the surface of cells (human, UniProt P01730 26-458)
# Assay: cell-based or functional assay
binder,measurement,value
B1,"IC50, HIV entry inhibition (PhenoSense), control virus 92HT594",0.021 µg/mL
same,"IC50, HIV entry inhibition (PhenoSense), control virus JRCSF",0.034 µg/mL
same,"IC50, HIV entry inhibition (PhenoSense), control virus JRFL",0.074 µg/mL
same,"IC50, HIV entry inhibition (PhenoSense), isolate 92/RW/008, clade A",0.026 µg/mL
same,"IC50, HIV entry inhibition (PhenoSense), isolate 92/RW/024, clade A",0.055 µg/mL
same,"IC50, HIV entry inhibition (PhenoSense), isolate 92/TH/005, clade EA",0.012 µg/mL
same,"IC50, HIV entry inhibition (PhenoSense), isolate 92/TH/006, clade EA",0.022 µg/mL
same,"IC50, HIV entry inhibition (PhenoSense), isolate 92/TH/007, clade EA",0.013 µg/mL
same,"IC50, HIV entry inhibition (PhenoSense), isolate 92/TH/009, clade EA",0.021 µg/mL
same,"IC50, HIV entry inhibition (PhenoSense), isolate 92/TH/019, clade EA",0.022 µg/mL
same,"IC50, HIV entry inhibition (PhenoSense), isolate 92/TH/020, clade EA",0.015 µg/mL
same,"IC50, HIV entry inhibition (PhenoSense), isolate 92/TH/021, clade EA",0.017 µg/mL
same,"IC50, HIV entry inhibition (PhenoSense), isolate 92/TH/022, clade EA",0.012 µg/mL
same,"IC50, HIV entry inhibition (PhenoSense), isolate 92/TH/024, clade EA",0.01 µg/mL
same,"IC50, HIV entry inhibition (PhenoSense), isolate 92/UG/001, clade D",0.018 µg/mL
same,"IC50, HIV entry inhibition (PhenoSense), isolate 92/UG/005, clade D",0.019 µg/mL
same,"IC50, HIV entry inhibition (PhenoSense), isolate 92/UG/021, clade D",0.017 µg/mL
same,"IC50, HIV entry inhibition (PhenoSense), isolate 92/UG/024, clade D",0.04 µg/mL
same,"IC50, HIV entry inhibition (PhenoSense), isolate 92/UG/035, clade D",0.011 µg/mL
same,"IC50, HIV entry inhibition (PhenoSense), isolate 92/UG/038, clade D",0.014 µg/mL
same,"IC50, HIV entry inhibition (PhenoSense), isolate 92/UG/046, clade D",0.015 µg/mL
same,"IC50, HIV entry inhibition (PhenoSense), isolate 92/UG/053, clade D",0.02 µg/mL
same,"IC50, HIV entry inhibition (PhenoSense), isolate 92/UG/065, clade D",0.015 µg/mL
same,"IC50, HIV entry inhibition (PhenoSense), isolate 93/BR/019, clade BF",0.013 µg/mL
same,"IC50, HIV entry inhibition (PhenoSense), isolate 93/BR/020, clade F",0.024 µg/mL
same,"IC50, HIV entry inhibition (PhenoSense), isolate 93/IN/101, clade C",0.016 µg/mL
same,"IC50, HIV entry inhibition (PhenoSense), isolate 93/RW/029, clade A",0.019 µg/mL
same,"IC50, HIV entry inhibition (PhenoSense), isolate 93/TH/057, clade E",0.023 µg/mL
same,"IC50, HIV entry inhibition (PhenoSense), isolate 93/TH/305, clade E",0.021 µg/mL
same,"IC50, HIV entry inhibition (PhenoSense), isolate 93/UG/067, clade D",0.016 µg/mL
same,"IC50, HIV entry inhibition (PhenoSense), isolate 93/UG/070, clade D",0.011 µg/mL
same,"IC50, HIV entry inhibition (PhenoSense), isolate 93/UG/077, clade A",0.012 µg/mL
same,"IC50, HIV entry inhibition (PhenoSense), isolate 93/UG/082, clade D",0.016 µg/mL
same,"IC50, HIV entry inhibition (PhenoSense), isolate 93/UG/086, clade D",0.015 µg/mL
same,"IC50, HIV entry inhibition (PhenoSense), isolate 94/UG/103, clade A",0.021 µg/mL
same,"IC50, HIV entry inhibition (PhenoSense), isolate 94/UG/105, clade D",0.021 µg/mL
same,"IC50, HIV entry inhibition (PhenoSense), isolate 94/UG/114, clade D",0.015 µg/mL
same,"IC50, HIV entry inhibition (PhenoSense), isolate 94/UG/117, clade D",0.017 µg/mL
same,"IC50, HIV entry inhibition (PhenoSense), isolate 94/UG/118, clade D",0.02 µg/mL
same,"IC50, HIV entry inhibition (PhenoSense), isolate 10215-6, clade C",0.018 µg/mL
same,"IC50, HIV entry inhibition (PhenoSense), isolate 10362, clade C",0.02 µg/mL
same,"IC50, HIV entry inhibition (PhenoSense), isolate 11657-3, clade C",0.025 µg/mL
same,"IC50, HIV entry inhibition (PhenoSense), isolate 20635-4, clade C",0.02 µg/mL
same,"IC50, HIV entry inhibition (PhenoSense), isolate 21068, clade C",0.011 µg/mL
same,"IC50, HIV entry inhibition (PhenoSense), isolate CA1, clade A",0.011 µg/mL
same,"IC50, HIV entry inhibition (PhenoSense), isolate CA2, clade A",0.018 µg/mL
same,"IC50, HIV entry inhibition (PhenoSense), isolate CA3, clade A",0.019 µg/mL
same,"IC50, HIV entry inhibition (PhenoSense), isolate CC1, clade C",0.016 µg/mL
same,"IC50, HIV entry inhibition (PhenoSense), isolate CC2, clade C",0.021 µg/mL
same,"IC50, HIV entry inhibition (PhenoSense), isolate CC3, clade C",0.012 µg/mL
same,"IC50, HIV entry inhibition (PhenoSense), isolate CC4, clade C",0.013 µg/mL
same,"IC50, HIV entry inhibition (PhenoSense), isolate CC5, clade C",0.019 µg/mL
same,"IC50, HIV entry inhibition (PhenoSense), isolate CC6, clade C",0.018 µg/mL
same,"IC50, HIV entry inhibition (PhenoSense), isolate CC7, clade C",0.013 µg/mL
same,"IC50, HIV entry inhibition (PhenoSense), isolate CC8, clade C",0.019 µg/mL
same,"IC50, HIV entry inhibition (PhenoSense), isolate CC9, clade C",0.02 µg/mL
same,"IC50, HIV entry inhibition (PhenoSense), isolate CC10, clade C",0.015 µg/mL
same,"IC50, HIV entry inhibition (PhenoSense), isolate CD1, clade D",0.016 µg/mL
same,"IC50, HIV entry inhibition (PhenoSense), isolate CF2, clade F",0.016 µg/mL
same,"IC50, HIV entry inhibition (PhenoSense), isolate CF3, clade F",0.024 µg/mL
same,"IC50, HIV entry inhibition (PhenoSense), isolate CF4, clade F",0.019 µg/mL
same,"IC50, HIV entry inhibition (PhenoSense), isolate CF5, clade F",0.018 µg/mL
same,"IC50, HIV entry inhibition (PhenoSense), isolate CF6, clade F",0.018 µg/mL
same,"IC50, HIV entry inhibition (PhenoSense), isolate CF7, clade F",0.019 µg/mL
same,"IC50, HIV entry inhibition (PhenoSense), isolate CF8, clade F",0.017 µg/mL
same,"IC50, HIV entry inhibition (PhenoSense), isolate CG1, clade G",0.018 µg/mL
same,"IC50, HIV entry inhibition (PhenoSense), isolate CG2, clade G",0.027 µg/mL
same,"IC50, HIV entry inhibition (PhenoSense), isolate CG3, clade G",0.016 µg/mL
same,"IC50, HIV entry inhibition (PhenoSense), isolate CG4, clade G",0.013 µg/mL
same,"IC50, HIV entry inhibition (PhenoSense), isolate CJ1, clade J",0.018 µg/mL
same,"IC50, HIV entry inhibition (PhenoSense), isolate CJ2, clade J",0.019 µg/mL
same,"IC50, HIV entry inhibition (PhenoSense), isolate CMU02, clade EA",0.011 µg/mL
same,"IC50, HIV entry inhibition (PhenoSense), isolate CMU06, clade E",0.026 µg/mL
same,"IC50, HIV entry inhibition (PhenoSense), isolate MW/93/959, clade C",0.019 µg/mL
same,"IC50, HIV entry inhibition (PhenoSense), isolate MW/93/960, clade C",0.01 µg/mL
same,"IC50, HIV entry inhibition (PhenoSense), isolate QZ4589, clade E?",0.036 µg/mL
same,"average IC50, HIV entry inhibition (PhenoSense), all viruses of the table",0.018 µg/mL
